The results in this text go back to patent US20220306707A1 (INDUSTRY UNIVERSITY COOPERATION FOUNDATION HANYANG …, published 2022).

Assay [1] deals with T1, Flag-NLRP3 wild-type (WT), full-length, transfected into 293T cells (UniProt Q96P20 1-1036).
T1 construct: also called wild-type (WT) NLRP3; not shown: Flag tag
Briefly: GST pulldown in transfected 293T cells (FIG. 3A).

The target in assay [2] is endogenous mouse NLRP3 (bone marrow-derived macrophages and splenocytes of C57BL/6 mice) (mouse, UniProt Q8R4B8 1-1033). As to the kind of experiment: immunoprecipitation from LPS- and ATP-treated BMDMs (FIG. 4D).
endogenous mouse NLRP3 (bone marrow-derived macrophages and splenocytes of C57BL/6 mice), sequence (Q8R4B8 whole entry): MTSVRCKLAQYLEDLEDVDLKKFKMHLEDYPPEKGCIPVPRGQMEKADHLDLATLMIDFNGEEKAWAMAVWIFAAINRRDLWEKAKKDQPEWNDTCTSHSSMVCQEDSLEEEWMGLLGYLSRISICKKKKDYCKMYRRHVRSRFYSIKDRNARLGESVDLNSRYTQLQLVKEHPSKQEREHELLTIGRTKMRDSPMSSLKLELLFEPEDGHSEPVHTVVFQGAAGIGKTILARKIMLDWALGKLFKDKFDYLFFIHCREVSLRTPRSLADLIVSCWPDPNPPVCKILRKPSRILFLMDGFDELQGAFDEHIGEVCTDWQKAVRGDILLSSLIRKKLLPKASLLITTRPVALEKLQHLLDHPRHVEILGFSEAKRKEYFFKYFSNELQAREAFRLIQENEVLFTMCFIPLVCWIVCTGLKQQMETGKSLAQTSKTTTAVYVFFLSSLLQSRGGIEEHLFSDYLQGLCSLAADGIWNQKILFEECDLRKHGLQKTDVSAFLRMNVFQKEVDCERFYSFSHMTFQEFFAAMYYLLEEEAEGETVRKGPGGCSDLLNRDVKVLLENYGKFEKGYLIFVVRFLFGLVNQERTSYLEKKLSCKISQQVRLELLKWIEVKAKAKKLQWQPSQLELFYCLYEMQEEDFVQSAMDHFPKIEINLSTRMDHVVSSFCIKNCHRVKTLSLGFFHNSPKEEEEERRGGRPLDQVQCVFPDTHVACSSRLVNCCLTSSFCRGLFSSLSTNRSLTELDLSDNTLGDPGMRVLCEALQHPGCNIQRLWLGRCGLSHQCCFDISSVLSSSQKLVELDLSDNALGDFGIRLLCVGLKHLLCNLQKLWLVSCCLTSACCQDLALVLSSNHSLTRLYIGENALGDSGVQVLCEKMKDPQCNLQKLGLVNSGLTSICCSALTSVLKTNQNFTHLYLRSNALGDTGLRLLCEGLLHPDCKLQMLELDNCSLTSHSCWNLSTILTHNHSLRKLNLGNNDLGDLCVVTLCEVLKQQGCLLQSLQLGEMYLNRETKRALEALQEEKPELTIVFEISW

Substitutions are numbered along the chain they refer to. Names may count otherwise.

T1 sequence (Q96P20 whole entry): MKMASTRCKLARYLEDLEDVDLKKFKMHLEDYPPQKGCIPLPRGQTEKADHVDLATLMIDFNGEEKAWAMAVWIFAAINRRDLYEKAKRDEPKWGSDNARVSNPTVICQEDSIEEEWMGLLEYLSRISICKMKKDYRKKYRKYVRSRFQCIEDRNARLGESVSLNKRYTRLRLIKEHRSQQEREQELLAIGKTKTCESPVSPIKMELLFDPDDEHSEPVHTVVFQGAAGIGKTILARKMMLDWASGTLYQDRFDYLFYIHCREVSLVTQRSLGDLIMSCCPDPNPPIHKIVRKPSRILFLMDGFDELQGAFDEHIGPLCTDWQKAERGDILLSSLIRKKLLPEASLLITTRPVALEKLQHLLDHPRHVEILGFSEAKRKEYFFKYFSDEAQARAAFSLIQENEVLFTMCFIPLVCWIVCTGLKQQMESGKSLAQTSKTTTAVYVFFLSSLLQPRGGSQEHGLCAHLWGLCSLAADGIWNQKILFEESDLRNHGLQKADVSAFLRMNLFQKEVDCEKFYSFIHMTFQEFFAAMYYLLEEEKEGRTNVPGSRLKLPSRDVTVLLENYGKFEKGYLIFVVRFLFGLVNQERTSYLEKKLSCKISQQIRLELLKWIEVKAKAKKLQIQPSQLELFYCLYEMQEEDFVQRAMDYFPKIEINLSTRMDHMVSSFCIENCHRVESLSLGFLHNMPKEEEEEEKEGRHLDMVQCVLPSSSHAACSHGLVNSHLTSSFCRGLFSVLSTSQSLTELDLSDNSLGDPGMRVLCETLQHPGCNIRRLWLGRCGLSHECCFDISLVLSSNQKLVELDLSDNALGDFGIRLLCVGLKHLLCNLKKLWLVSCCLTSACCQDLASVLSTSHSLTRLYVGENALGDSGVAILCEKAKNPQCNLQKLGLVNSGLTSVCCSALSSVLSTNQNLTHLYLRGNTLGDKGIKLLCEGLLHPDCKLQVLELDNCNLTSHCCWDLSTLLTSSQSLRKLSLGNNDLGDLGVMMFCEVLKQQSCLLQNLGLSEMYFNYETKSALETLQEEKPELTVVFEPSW

B1: GST-GRA9 C-terminal domain containing the Q200L mutation (other)
chain: MSVDPLCIMTREVVAQKLAGWTDNTHTATAGTPKKLLISFPSPDHIKEMVKEGYLPDNALERVLAGDFEGFSRTQMCLVSGRNRTECAFAEGQE
notes: also called GST-GRA9 C^Q200L; GST-GRA9 containing the Q200L mutation at the C-terminus
In the case of B1, the binding result in assay [1] is listed as “no binding”.

B2: recombinant GRA9C (residues 195-288) with N-terminal 6x His tag, purified from E. coli (other)
chain: HHHHHHMSVDPQCIMTREVVAQKLAGWTDNTHTATAGTPKKLLISFPSPDHIKEMVKEGYLPDNALERVLAGDFEGFSRTQMCLVSGRNRTECAFAEGQE
notes: also called rGRA9C; 6xHis-GRA9C
In the case of B2, the binding result in assay [2] was “binds”.

B3: recombinant GRA9C^Q200L (residues 195-288, Q200L) with N-terminal 6x His tag, purified from E. coli (other)
chain: B2 chain with Q12L
notes: also called rGRA9C^Q200L
Turning to B3, the binding result in assay [2] was “no binding”.
